Results on one substance are retold here after US20170014503A1.

Assay [1] concerns the target SP62-L669S (gp41 652-671)-GTH1 peptide anchored to liposomes (HIV-1). The experiment in a line: BIAcore SPR on liposome-anchored peptide; encounter-docking model; dissociation of the encounter step.
Assay [2] concerns the target SP62 (gp41 652-671)-GTH1 peptide anchored to liposomes (HIV-1). The description is as above.
In assay [3] the target is SP62-L669S (gp41 652-671)-GTH1 peptide anchored to liposomes (HIV-1). The experiment in a line: BIAcore SPR on liposome-anchored peptide; encounter-docking model A + B <-> AB (encounter) <-> ABx (docked); association of the encounter step.
Assay [4] deals with SP62 (gp41 652-671)-GTH1 peptide anchored to liposomes (HIV-1). Described as above.
Assay [5] concerns the target SP62-L669S (gp41 652-671)-GTH1 peptide anchored to liposomes (HIV-1). The experiment in a line: SPR, peptide anchored to phospholipid liposomes. Background: SPR reads the build-up and loss of mass on a sensor chip optically.
The target of assay [6] is SP62 (gp41 652-671)-GTH1 peptide anchored to liposomes (HIV-1). The experiment in a line: SPR, peptide anchored to phospholipid liposomes.
For assay [7], the target named is SP62-L669S (gp41 652-671)-GTH1 peptide anchored to liposomes (HIV-1). The experiment in a line: BIAcore SPR on liposome-anchored peptide; encounter-docking model; forward rate of the docking step.
The target in assay [8] is SP62 (gp41 652-671)-GTH1 peptide anchored to liposomes (HIV-1). Described as above.
Assay [9] concerns the target SP62-L669S (gp41 652-671)-GTH1 peptide anchored to liposomes (HIV-1). Description: BIAcore SPR on liposome-anchored peptide; encounter-docking model; reverse rate of the docking step.
The target of assay [10] is SP62 (gp41 652-671)-GTH1 peptide anchored to liposomes (HIV-1). The description is as above.

Regarding 2F5 mAb (antibody), the kd1 in [1] worked out at 0.00119 s⁻¹; in assay [2], 0.00692 s⁻¹. Besides, the results for the ka1 in [3] and in assay [4] were 498000 M⁻¹ s⁻¹ and 931000 M⁻¹ s⁻¹, respectively. This substance had a reactivity value in column 'KYNU wt' with KYNU wt of 3.63. The substance also yielded a reactivity value in column 'KYNU mut' with KYNU mut of 0.465. Besides, the response unit (background subtracted) at 10 seconds after the injection was stopped in assay [5] worked out at 617 RU. The substance further showed a response unit at 10 seconds after the injection was stopped in assay [6] of 495 RU. Further, the figures for the ka2 in assay [7] and in [8] were 0.0054 s⁻¹ and 0.0181 s⁻¹, respectively. In addition, the figures for the kd2 in [9] and in assay [10] were 2e-05 s⁻¹ and 0.00037 s⁻¹, respectively.
